# According to patent US20200123264A1 (Regeneron, published 2020):
# T1: human LEPR CRH1 (D1)-MMH (human, UniProt P48357 22-229, limits assumed)
# T1 construct: domain: CRH1 (D1); Transiently expressed, captured from supernatant on anti-myc beads
# T1 sequence (looked up): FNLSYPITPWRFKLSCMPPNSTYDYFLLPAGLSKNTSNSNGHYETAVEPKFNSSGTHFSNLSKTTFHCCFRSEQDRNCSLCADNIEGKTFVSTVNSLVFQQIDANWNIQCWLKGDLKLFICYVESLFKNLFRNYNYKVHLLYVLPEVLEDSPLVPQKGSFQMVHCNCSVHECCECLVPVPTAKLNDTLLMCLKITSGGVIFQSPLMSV
# T2: human LEPR CRH1 (D1,D2)-MMH (human, UniProt P48357 22-339, limits assumed)
# T2 construct: domain: CRH1 (D1,D2); Transiently expressed, captured from supernatant on anti-myc beads
# T2 sequence (looked up): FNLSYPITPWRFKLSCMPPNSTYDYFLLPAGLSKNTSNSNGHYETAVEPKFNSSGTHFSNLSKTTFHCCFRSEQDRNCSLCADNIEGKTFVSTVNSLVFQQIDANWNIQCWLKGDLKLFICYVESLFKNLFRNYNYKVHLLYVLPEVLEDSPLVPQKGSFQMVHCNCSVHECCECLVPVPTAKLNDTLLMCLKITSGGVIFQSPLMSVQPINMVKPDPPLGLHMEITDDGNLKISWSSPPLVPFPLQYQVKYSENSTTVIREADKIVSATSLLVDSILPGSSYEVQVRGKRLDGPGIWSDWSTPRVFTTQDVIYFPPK
# T3: human LEPR CRH1-Ig (D2,D3)-MMH (human, UniProt P48357 230-427, limits assumed)
# T3 construct: domain: CRH1-Ig (D2,D3); Transiently expressed, captured from supernatant on anti-myc beads
# T3 sequence (looked up): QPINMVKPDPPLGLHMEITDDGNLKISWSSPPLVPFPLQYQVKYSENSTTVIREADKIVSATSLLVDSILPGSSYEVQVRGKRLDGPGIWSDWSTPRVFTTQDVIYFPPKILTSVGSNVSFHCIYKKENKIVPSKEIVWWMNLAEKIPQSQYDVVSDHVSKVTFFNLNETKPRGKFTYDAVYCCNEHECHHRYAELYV
# T4: human LEPR Ig (D3)-MMH (human, UniProt P48357 340-427, limits assumed)
# T4 construct: domain: Ig (D3); Transiently expressed, captured from supernatant on anti-myc beads
# T4 sequence (looked up): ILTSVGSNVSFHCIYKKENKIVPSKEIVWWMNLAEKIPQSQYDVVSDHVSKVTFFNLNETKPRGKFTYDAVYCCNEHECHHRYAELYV
# T5: human LEPR CRH2-MMH (human, UniProt P48357 428-634, limits assumed)
# T5 construct: domain: CRH2; Transiently expressed, captured from supernatant on anti-myc beads
# T5 sequence (looked up): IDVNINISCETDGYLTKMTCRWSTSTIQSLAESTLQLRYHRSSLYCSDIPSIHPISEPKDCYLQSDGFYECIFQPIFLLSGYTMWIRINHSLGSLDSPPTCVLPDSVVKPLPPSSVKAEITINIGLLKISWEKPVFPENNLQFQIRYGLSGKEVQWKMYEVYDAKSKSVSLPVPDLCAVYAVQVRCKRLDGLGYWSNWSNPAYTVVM
# T6: human LEPR FNIII-MMH (human, UniProt P48357 636-839, limits assumed)
# T6 construct: domain: FNIII; Transiently expressed, captured from supernatant on anti-myc beads
# T6 sequence (looked up): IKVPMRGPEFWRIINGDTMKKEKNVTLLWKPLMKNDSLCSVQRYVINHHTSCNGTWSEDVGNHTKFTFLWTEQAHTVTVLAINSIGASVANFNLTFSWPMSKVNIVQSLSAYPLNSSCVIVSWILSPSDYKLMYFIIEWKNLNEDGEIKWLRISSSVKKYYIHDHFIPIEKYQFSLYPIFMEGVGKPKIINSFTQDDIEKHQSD
# T7: human LEPR Ig-CRH2-FNIII-MMH (human, UniProt P48357 330-839, limits assumed)
# T7 construct: domain: Ig-CRH2-FNIII; Transiently expressed, captured from supernatant on anti-myc beads
# T7 sequence (looked up): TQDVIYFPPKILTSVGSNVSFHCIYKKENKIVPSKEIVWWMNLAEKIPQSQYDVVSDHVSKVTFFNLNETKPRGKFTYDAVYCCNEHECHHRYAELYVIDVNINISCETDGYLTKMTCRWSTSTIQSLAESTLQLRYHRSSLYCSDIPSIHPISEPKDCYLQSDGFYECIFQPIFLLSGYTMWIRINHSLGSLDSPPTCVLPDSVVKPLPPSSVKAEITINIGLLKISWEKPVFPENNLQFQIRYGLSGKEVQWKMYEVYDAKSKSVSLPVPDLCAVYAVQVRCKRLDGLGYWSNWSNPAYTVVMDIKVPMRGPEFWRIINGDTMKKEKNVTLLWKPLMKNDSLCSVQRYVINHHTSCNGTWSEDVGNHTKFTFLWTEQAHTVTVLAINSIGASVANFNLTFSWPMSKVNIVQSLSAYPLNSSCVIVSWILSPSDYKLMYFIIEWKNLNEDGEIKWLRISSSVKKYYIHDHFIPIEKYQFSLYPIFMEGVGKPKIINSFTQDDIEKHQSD
# B1: H4H18439P2 (antibody, human IgG4, V domains shown)
# VH: QLQLQESGPGLVKPSETLSLTCIVSGGDITSSSYYWNWIRQPPGKGLEWIGNIYYSGSTNYNPSLKSRVTISIDTSKSQFSLKLRSVTAADTAVYYCARLLRYFDWSKGYLDYWGQGTLVTVSS
# VL: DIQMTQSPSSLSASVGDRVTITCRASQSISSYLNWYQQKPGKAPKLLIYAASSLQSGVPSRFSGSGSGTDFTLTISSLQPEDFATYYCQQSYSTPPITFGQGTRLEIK
# notes: H4H prefix: human IgG4 Fc
# B2: H4H17322P2 (antibody, human IgG4, V domains shown)
# VH: QLQLQESGPGLVKPSETLSLTCTVSGASISSSRFYGGWIRQPPGKGLEWIGDIYYSGNTYYNPSLQSRVTISVDTSKNQFSLKLSSVTAADTAVYYCARHLMITFGGLIVEGFDIWGQGTMVTVSS
# VL: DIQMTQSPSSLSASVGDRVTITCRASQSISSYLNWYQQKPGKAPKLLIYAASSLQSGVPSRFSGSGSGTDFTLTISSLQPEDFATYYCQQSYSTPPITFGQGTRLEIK
# notes: H4H prefix: human IgG4 Fc
# B3: H4H18440P2 (antibody, human IgG4, V domains shown)
# VH: QVQLVESGGGMVKPGGSLRLSCAASGFTFSDYYMSWIRQAPGKGLEWISHISITGSTIYYADSVKGRFTISRDNAKNSLYLEMNRLRDEDTAVYYCTRDEPDIVLVRYGMDVWGQGTTVTVSS
# VL: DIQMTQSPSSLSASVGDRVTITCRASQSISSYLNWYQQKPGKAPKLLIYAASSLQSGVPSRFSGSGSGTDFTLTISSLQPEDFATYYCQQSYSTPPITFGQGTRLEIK
# notes: H4H prefix: human IgG4 Fc
# B4: H4H18464P2 (antibody, human IgG4, V domains shown)
# VH: QVQLVQSGPEVKKPGASVKVSCKGSGYTFSWYGISWIRQAPGHGLEWMGWISASSGNTRFAQKVQGRLTMTTDTSTSTAYMELRSLRSDDTAVYYCARTGTRPFDYWGQGTLVTVSS
# VL: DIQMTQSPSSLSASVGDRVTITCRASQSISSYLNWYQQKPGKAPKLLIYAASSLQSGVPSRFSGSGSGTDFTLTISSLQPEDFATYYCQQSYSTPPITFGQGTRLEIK
# notes: H4H prefix: human IgG4 Fc
# B5: H4H18466P2 (antibody, human IgG4, V domains shown)
# VH: EVQLVESGGGLVQPGGSLRLSCTASGFTFSSYGLHWVRQAPGKGLEYVSSINHNGGSKYYADSVKGRFTISRDNSKNTLFLQMGSLKTEDMAVYYCARDLFLEWLFHGFDIWGQGTMVTVSS
# VL: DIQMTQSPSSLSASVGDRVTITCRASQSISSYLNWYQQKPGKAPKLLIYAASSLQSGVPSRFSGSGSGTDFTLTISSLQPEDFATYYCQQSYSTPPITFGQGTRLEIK
# notes: H4H prefix: human IgG4 Fc
# B6: H4H18457P2 (antibody, human IgG4, V domains shown)
# VH: EVQLVESGGSVVRPGESLRLSCAASGFTFDDYGMSWVRQAPGKGLEWVSGISWNGGITVYADSVKGRFTVSRDNAKNSLYLQMNSLRAEDTALYHCARARYGGADYWGQGTLVTVSS
# VL: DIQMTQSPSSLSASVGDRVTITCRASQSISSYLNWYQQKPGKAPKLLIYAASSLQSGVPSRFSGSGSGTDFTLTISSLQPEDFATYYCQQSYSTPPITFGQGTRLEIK
# notes: H4H prefix: human IgG4 Fc
# B7: H4H18462P2 (antibody, human IgG4, V domains shown)
# VH: EVQLVESGGDLVQPGRSLRLSCAASGFTFSSFAMSWVRQAPGRGLEWVSSLSDSGDNTYYADSVKGRFTISRDNSKNTLYLQMNNLRAEDTAVYYCAKDLFSGWLFHGFDVWGQGTMVTVSS
# VL: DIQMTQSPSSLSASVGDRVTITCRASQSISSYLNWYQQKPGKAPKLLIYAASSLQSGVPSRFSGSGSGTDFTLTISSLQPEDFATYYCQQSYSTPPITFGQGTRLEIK
# notes: H4H prefix: human IgG4 Fc
# B8: H4H18437P2 (antibody, human IgG4, V domains shown)
# VH: QVQLVESGGGVVQPGRSLRLSCAASGFTFSSYGIHWVRQAPGKGLEWVAVISYDGNNKYYADSVKGRFTISRDNSKNTLYLQMNSLRAEDTAVYYCAKDLFLEWLFHGMGVWGQGTTVTVSS
# VL: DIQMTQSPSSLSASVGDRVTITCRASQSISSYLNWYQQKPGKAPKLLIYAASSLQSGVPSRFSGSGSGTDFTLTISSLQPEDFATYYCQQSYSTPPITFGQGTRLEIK
# notes: H4H prefix: human IgG4 Fc
# Target: T1, human LEPR CRH1 (D1)-MMH
# Assay: Luminex, myc-captured LEPR protein on beads, Ab 5 µg/mL
# Method: (§1) Aliquots of microspheres with immobilized anti-myc monoclonal antibodies, prepared as described above, were added individually to 1 mL of the each of these protein supernatants. The microspheres were gently mixed, incubated for two hours at 25° C., washed twice with 1 mL of DBPS, centrifuged to remove the supernatant and finally resuspended in 1 mL of DPBS buffer. Forty eight μL of anti-myc IgG coupled microspheres from individual reactions with full length human LEPR and with each of the human LEPR domain proteins were withdrawn and mixed together in 3.6 mL of PBS+20 mg/mL BSA+0.05% sodium azide (blocking buffer).
# (§2) From this mixed pool, 75 μL of microspheres were plated per well on a 96 well filter plate (Millipore, Cat. No: MSBVN1250) and mixed with 25 μL of individual anti-human LEPR monoclonal antibodies (0.5 or 5 μg/mL), incubated for two hours at 25° C. and then washed twice with 200 μL of DPBS with 0.05% Tween 20 (washing buffer). […] After 30 minutes, the samples were washed twice with 200 μL of washing buffer and resuspended in 150 μL of wash buffer. The Median Fluorescence intensity (MFI) of the microspheres was measured in a Luminex Analyzer.
row,Binder,Luminex MFI [MFI]
1,B1,11
2,B2,14
3,B3,8
4,B4,13
5,B5,15
6,B6,13
7,B7,5380
8,B8,21

# Target: T2, human LEPR CRH1 (D1,D2)-MMH
# Assay: as above
# Method: as §1, §2
row,Binder,Luminex MFI [MFI]
1,B1,21200
2,B2,50
3,B3,19300
4,B4,59
5,B5,56
6,B6,53
7,B7,5730
8,B8,82

# Target: T3, human LEPR CRH1-Ig (D2,D3)-MMH
# Assay: as above
# Method: as §1, §2
row,Binder,Luminex MFI [MFI]
1,B1,10000
2,B2,58
3,B3,9160
4,B4,3740
5,B5,76
6,B6,43
7,B7,47
8,B8,43

# Target: T4, human LEPR Ig (D3)-MMH
# Assay: as above
# Method: as §1, §2
row,Binder,Luminex MFI [MFI]
1,B1,18
2,B2,26
3,B3,14
4,B5,26
5,B6,18
6,B7,21
7,B8,26

# Target: T5, human LEPR CRH2-MMH
# Assay: as above
# Method: as §1, §2
row,Binder,Luminex MFI [MFI]
1,B1,16
2,B2,19700
3,B3,17
4,B4,24
5,B5,17
6,B6,18
7,B7,24
8,B8,25

# Target: T6, human LEPR FNIII-MMH
# Assay: as above
# Method: as §1, §2
row,Binder,Luminex MFI [MFI]
1,B1,13
2,B2,23
3,B3,10
4,B4,23
5,B5,457
6,B6,1190
7,B7,581
8,B8,1590

# Target: T7, human LEPR Ig-CRH2-FNIII-MMH
# Assay: as above
# Method: as §1, §2
row,Binder,Luminex MFI [MFI]
1,B1,43
2,B2,15100
3,B3,32
4,B4,15100
5,B5,11300
6,B6,13200
7,B7,14900
8,B8,15600
